{"source": "the supplement of paper PMC9112550", "about": "“Optimization of the antimicrobial peptide Bac7 by deep mutational scanning” (BMC Biology, 2022);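 also: peptides expressed intracellularly from a pBAD plasmid library in pooled LB shake-flask culture, induced with 0.3% L-arabinose, DNA abundance read by NGS, three biological replicates, DESeq2 with apeglm shrinkage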"}
{"tested_on": "Escherichia coli TOP10", "assay": "shrunken log2 fold change of peptide-encoding DNA abundance (4.5 h post-induction vs induction); higher = less antimicrobial activity (less host growth inhibition)", "conditions": "time post-induction: 4.5 h; library: site-saturation at positions 5, 18, 19, 20"}
{"sequence": "RRIRPRPPRLPRPRPRPMDDPRP", "shrunken log2 fold change": 0.00641}
{"sequence": "RRIRFRPPRLPRPRPRPNREPRP", "shrunken log2 fold change": -0.181}
{"sequence": "RRIRYRPPRLPRPRPRPDSPPRP", "shrunken log2 fold change": -0.391}
{"sequence": "RRIRIRPPRLPRPRPRPPVMPRP", "shrunken log2 fold change": 0.126}
{"sequence": "RRIRWRPPRLPRPRPRPPYFPRP", "shrunken log2 fold change": -0.0123}
{"sequence": "RRIRMRPPRLPRPRPRPHPRPRP", "shrunken log2 fold change": 1.04}
{"sequence": "RRIRTRPPRLPRPRPRPICVPRP", "shrunken log2 fold change": -0.289}
{"sequence": "RRIRFRPPRLPRPRPRPVLQPRP", "shrunken log2 fold change": 0.21}
{"sequence": "RRIRERPPRLPRPRPRPYHTPRP", "shrunken log2 fold change": 0.0711}
{"sequence": "RRIRPRPPRLPRPRPRPPYKPRP", "shrunken log2 fold change": -0.113}
{"sequence": "RRIRMRPPRLPRPRPRPQPWPRP", "shrunken log2 fold change": 0.561}
{"sequence": "RRIRARPPRLPRPRPRPSYRPRP", "shrunken log2 fold change": -0.228}
{"sequence": "RRIRSRPPRLPRPRPRPTPMPRP", "shrunken log2 fold change": 0.61}
{"sequence": "RRIRNRPPRLPRPRPRPQRSPRP", "shrunken log2 fold change": 0.0667}
{"sequence": "RRIRTRPPRLPRPRPRPIPPPRP", "shrunken log2 fold change": 0.384}
{"sequence": "RRIRTRPPRLPRPRPRPIRKPRP", "shrunken log2 fold change": 0.0309}
{"sequence": "RRIRLRPPRLPRPRPRPWWHPRP", "shrunken log2 fold change": 0.0812}
{"sequence": "RRIRLRPPRLPRPRPRPTGHPRP", "shrunken log2 fold change": 0.0863}
{"sequence": "RRIRVRPPRLPRPRPRPSDLPRP", "shrunken log2 fold change": -0.196}
{"sequence": "RRIRTRPPRLPRPRPRPETNPRP", "shrunken log2 fold change": 0.402}
{"sequence": "RRIRERPPRLPRPRPRPHEMPRP", "shrunken log2 fold change": -0.039}
{"sequence": "RRIRRRPPRLPRPRPRPFCTPRP", "shrunken log2 fold change": -0.13}
{"sequence": "RRIRPRPPRLPRPRPRPNIVPRP", "shrunken log2 fold change": -0.342}
{"sequence": "RRIRKRPPRLPRPRPRPVRKPRP", "shrunken log2 fold change": 0.0395}
{"sequence": "RRIRSRPPRLPRPRPRPYNEPRP", "shrunken log2 fold change": -0.554}
{"sequence": "RRIRERPPRLPRPRPRPVNHPRP", "shrunken log2 fold change": -0.229}
{"sequence": "RRIRRRPPRLPRPRPRPLVDPRP", "shrunken log2 fold change": 0.106}
{"sequence": "RRIRERPPRLPRPRPRPWKVPRP", "shrunken log2 fold change": -0.0109}
{"sequence": "RRIRYRPPRLPRPRPRPKKSPRP", "shrunken log2 fold change": -0.298}
{"sequence": "RRIRLRPPRLPRPRPRPTCGPRP", "shrunken log2 fold change": 0.281}
{"sequence": "RRIRCRPPRLPRPRPRPCSKPRP", "shrunken log2 fold change": -0.0735}
{"sequence": "RRIRMRPPRLPRPRPRPSGQPRP", "shrunken log2 fold change": 0.602}
{"sequence": "RRIRQRPPRLPRPRPRPGFEPRP", "shrunken log2 fold change": 0.809}
{"sequence": "RRIRDRPPRLPRPRPRPFTCPRP", "shrunken log2 fold change": -0.00884}
{"sequence": "RRIRTRPPRLPRPRPRPWWEPRP", "shrunken log2 fold change": 0.00671}
{"sequence": "RRIRFRPPRLPRPRPRPANLPRP", "shrunken log2 fold change": -0.296}
{"sequence": "RRIRGRPPRLPRPRPRPDSCPRP", "shrunken log2 fold change": 0.426}
{"sequence": "RRIRFRPPRLPRPRPRPNMPPRP", "shrunken log2 fold change": -0.443}
{"sequence": "RRIRLRPPRLPRPRPRPLKWPRP", "shrunken log2 fold change": -0.369}
{"sequence": "RRIRNRPPRLPRPRPRPAYVPRP", "shrunken log2 fold change": -0.0369}
{"sequence": "RRIRGRPPRLPRPRPRPHHPPRP", "shrunken log2 fold change": 1.21}
{"sequence": "RRIRPRPPRLPRPRPRPSESPRP", "shrunken log2 fold change": 0.000106}
{"sequence": "RRIRDRPPRLPRPRPRPVTTPRP", "shrunken log2 fold change": 0.0135}
{"sequence": "RRIRWRPPRLPRPRPRPGHEPRP", "shrunken log2 fold change": 0.0994}
{"sequence": "RRIRERPPRLPRPRPRPTSRPRP", "shrunken log2 fold change": 0.249}
{"sequence": "RRIRLRPPRLPRPRPRPGDGPRP", "shrunken log2 fold change": 0.869}
{"sequence": "RRIRMRPPRLPRPRPRPNVGPRP", "shrunken log2 fold change": -0.0241}
{"sequence": "RRIRARPPRLPRPRPRPFTNPRP", "shrunken log2 fold change": -0.273}
{"sequence": "RRIRLRPPRLPRPRPRPYCIPRP", "shrunken log2 fold change": -0.121}
{"sequence": "RRIRQRPPRLPRPRPRPPGVPRP", "shrunken log2 fold change": 0.462}
{"sequence": "RRIRTRPPRLPRPRPRPKCPPRP", "shrunken log2 fold change": 0.281}
{"sequence": "RRIRGRPPRLPRPRPRPTFLPRP", "shrunken log2 fold change": 0.356}
{"sequence": "RRIRLRPPRLPRPRPRPLMEPRP", "shrunken log2 fold change": -0.392}
{"sequence": "RRIRVRPPRLPRPRPRPTGMPRP", "shrunken log2 fold change": 0.0943}
{"sequence": "RRIRGRPPRLPRPRPRPQHIPRP", "shrunken log2 fold change": -0.281}
{"sequence": "RRIRYRPPRLPRPRPRPYLEPRP", "shrunken log2 fold change": -1.7}
{"sequence": "RRIRIRPPRLPRPRPRPCLFPRP", "shrunken log2 fold change": -0.639}
{"sequence": "RRIRSRPPRLPRPRPRPFVHPRP", "shrunken log2 fold change": -0.291}
{"sequence": "RRIRERPPRLPRPRPRPDVRPRP", "shrunken log2 fold change": 0.0184}
{"sequence": "RRIRYRPPRLPRPRPRPLLIPRP", "shrunken log2 fold change": -0.798}
{"sequence": "RRIRSRPPRLPRPRPRPRCHPRP", "shrunken log2 fold change": -0.0928}
{"sequence": "RRIRERPPRLPRPRPRPSPHPRP", "shrunken log2 fold change": -0.229}
{"sequence": "RRIRMRPPRLPRPRPRPPEGPRP", "shrunken log2 fold change": 0.338}
{"sequence": "RRIRHRPPRLPRPRPRPHKRPRP", "shrunken log2 fold change": 0.0586}
{"sequence": "RRIRKRPPRLPRPRPRPPYLPRP", "shrunken log2 fold change": 0.0134}
{"sequence": "RRIRNRPPRLPRPRPRPCQSPRP", "shrunken log2 fold change": -0.212}
{"sequence": "RRIRIRPPRLPRPRPRPYPTPRP", "shrunken log2 fold change": -0.159}
{"sequence": "RRIRPRPPRLPRPRPRPWFAPRP", "shrunken log2 fold change": -0.116}
{"sequence": "RRIRCRPPRLPRPRPRPIENPRP", "shrunken log2 fold change": -0.209}
{"sequence": "RRIRPRPPRLPRPRPRPMWVPRP", "shrunken log2 fold change": -0.138}
{"sequence": "RRIRWRPPRLPRPRPRPLWRPRP", "shrunken log2 fold change": 3.71}
{"sequence": "RRIRERPPRLPRPRPRPPTEPRP", "shrunken log2 fold change": 0.0778}
{"sequence": "RRIRCRPPRLPRPRPRPMACPRP", "shrunken log2 fold change": 0.00876}
{"sequence": "RRIRPRPPRLPRPRPRPAQMPRP", "shrunken log2 fold change": 0.181}
{"sequence": "RRIRARPPRLPRPRPRPDCMPRP", "shrunken log2 fold change": 0.386}
